Experimental findings from article doi:10.1101/2024.07.16.603692 are described below.

For the assay, the target named is CBP-UPF1-CH-HD (aa 115-914) (human) (UniProt Q92900). Put plainly: MST.

One may read the Kd as the constant that tells how readily two partners part at equilibrium. Read a low Kd as a tighter complex.

The substance “UPF2(770-1204) (from UniProt Q9HAU5 770-1204) (domain or fragment)” showed a Kd of 10 nM.
